Consider one molecule from US20220155314A1 (ACADEMIA SINICA, published 2022).

The assay has as its target T1, HA-GCM1 (UniProt Q9NP62 1-436).
T1 construct: Expressed in transfected 293T or Hep3B cells; also called glial cells missing 1; pHA-GCM1; not shown: N-terminal HA tag
T1 sequence (looked up): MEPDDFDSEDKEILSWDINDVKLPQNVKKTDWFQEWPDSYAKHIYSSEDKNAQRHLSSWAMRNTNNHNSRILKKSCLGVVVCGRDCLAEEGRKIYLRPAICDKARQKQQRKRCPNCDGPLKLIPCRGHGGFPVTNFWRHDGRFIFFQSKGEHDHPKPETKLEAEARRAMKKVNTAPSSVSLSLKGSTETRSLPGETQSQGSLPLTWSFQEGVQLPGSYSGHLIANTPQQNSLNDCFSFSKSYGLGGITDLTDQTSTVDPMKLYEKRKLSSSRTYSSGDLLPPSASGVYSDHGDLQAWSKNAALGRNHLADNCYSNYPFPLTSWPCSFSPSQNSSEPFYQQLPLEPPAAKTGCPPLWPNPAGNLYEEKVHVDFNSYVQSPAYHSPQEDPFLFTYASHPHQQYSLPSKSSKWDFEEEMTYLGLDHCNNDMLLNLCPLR
In words: co-immunoprecipitation with HA and FLAG mAbs in transfected 293T cells. From the text:
293T cells were transfected with different combinations of pΔNp63α-FLAG, pOVOL1-FLAG, and pHA-GCM1 for co-immunoprecipitation analysis with HA and FLAG mAbs. […] 293T cells were transfected with pHA-GCM1 and different pΔNp63α-FLAG plasmids encoding full-length or deletion mutant ΔNp63α-FLAG proteins, followed by co-immunoprecipitation analysis with HA and FLAG mAbs. Schematic representation of functional domains in ΔNp63α is presented. DBD: DNA-binding domain; OD: oligomerization domain; SAM: sterile alpha motif; TID: transactivation inhibitory domain. In a separate experiment, 293T cells were transfected with pΔNp63α-HA and pGAL4-FLAG or different pGAL4-GCM1-FLAG plasmids encoding full-length or deletion mutant GAL4GCM1-FLAG proteins for co-immunoprecipitation analysis with HA and FLAG mAbs. Schematic representation of functional domains in GCM1 is presented. TAD: transactivation domain. […] Glutathione-conjugated agarose beads pre-bound with GST, GST-SAM or GST-OD were incubated with recombinant GCM1-FLAG protein in pull-down assays. […] Mock and ΔNp63α-FLAG-expressing BeWo cells were subjected to immunoblotting (left) and quantitative RT-PCR (right) analyses of GCM1, HTRA4, and hCGβ proteins and transcripts. […] BeWo cells stably expressing scramble or GCM1 shRNA were subjected to immunoblotting (left) and quantitative RT-PCR (right) analyses of GCM1 and ΔNp63α proteins and transcripts.

B1: OVOL1-FLAG (other, human, UniProt O14753 1-267, looked up)
chain: MPRAFLVKKPCVSTCKRNWSELPDEERGEIYVPVSLGFCPPQPYREPEPSVAEPPSCPLALNMSLRDSSYSMAPGPCVVAQLPSEDMGHLTDPQSRDHGFLRTKMKVTLGDSPSGDLFTCRVCQKAFTYQRMLNRHMKCHNDVKRHLCTYCGKGFNDTFDLKRHVRTHTGVRPYKCSLCDKAFTQRCSLESHLKKIHGVQQKYAYKERRAKLYVCEECGCTSESQEGHVLHLKEHHPDSPLLRKTSKKVAVALQNTVTSLLQGSPHL
notes: also called pOVOL1-FLAG; pOVOL-1-FLAG; not shown: C-terminal FLAG tag
For the molecule B1, the binding result is recorded as “no binding”.
